According to article PMC8230665, “Specificity of Human Sulfiredoxin for Reductant and Peroxiredoxin Oligomeric State” (Antioxidants, 2021):
Substitutions are numbered along the chain they refer to. In names and notes the source's numbering stands. One block for each binder: values may come before it.

Key:
[1] = target: the molecule itself; experiment: crystal structure; disulfide-bonded Srx-Prx1 complex (Cys99 of Srx to Cys52 of Prx1); hanging drop, 100 mM citric acid pH 4.5, 26% PEG 400, 100 mM CsCl; 3.0 Å, space group C2
[2] = target: the molecule itself; experiment: SEC-MALS; 2 mg/mL (86-93 µM) Prx in 50 mM HEPES pH 7.5, 100 mM NaCl; TSK Gel 4000 SW; reduced samples with 10 mM DTT, oxidized samples with 1.2 equivalents of H2O2
[3] = target: T1, hyperoxidized wild-type human peroxiredoxin 1, decameric (Prx1-SO2H) (human, UniProt Q06830 1-199, cysteine sulfinic acid at the peroxidatic cysteine (CP-SO2H; CP is Cys52)); experiment: fluorescence polarisation; Oregon Green 514-labelled Srx variants, decameric Prx1-SO2H added; MgCl2 omitted to prevent turnover; curves fit to a single site, saturable model; conditions: both partners purified
T1 construct: peroxiredoxin 1 (Prx1), human; also called hyperoxidized Prx1; copies: 10
T1 sequence (looked up): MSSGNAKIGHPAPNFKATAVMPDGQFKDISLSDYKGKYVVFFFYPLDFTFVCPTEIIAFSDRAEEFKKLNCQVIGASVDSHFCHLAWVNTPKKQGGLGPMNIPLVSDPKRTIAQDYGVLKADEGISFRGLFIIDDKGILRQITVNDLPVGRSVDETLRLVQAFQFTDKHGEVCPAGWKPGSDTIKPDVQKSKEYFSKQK

B1: human peroxiredoxin 1 variant C71S, C83V, C173S (decamer) (enzyme)
chain: T1 sequence (looked up) with C71S, C83V, C173S
modifications: Cys52 disulfide-bonded to Cys99 of Srx (made through a Cys52-S-TNB mixed disulfide)
notes: peroxiredoxin 1 (Prx1), human; Only the peroxidatic Cys52 is left; C83V was put in to stabilise the decamer; also called Prx1 variant; Prx1 C83V mutant; source: purified; treated with DTNB, then titrated with Srx; copies: 10
stoichiometry N [1]: 10

B2: human peroxiredoxin 3 Ser139Glu/Ala142Glu, engineered dimer (enzyme, UniProt P30048 62-256, looked up)
chain: APAVTQHAPYFKGTAVVNGEFKDLSLDDFKGKYLVLFFYPLDFTFVCPTEIVAFSDKANEFHDVNCEVVAVSVDSHFEHLEWINTPRKNGGLGHMNIALLSDLTKQISRDYGVLLEGSGLALRGLFIIDPNGVIKHLSVNDLPVGRSVEETLRLVKAFQYVETHGEVCPANWTPDSPTIKPSPAASKEYFQKVNQ
notes: peroxiredoxin 3 (Prx3), mitochondrial, human; Vector pET15b; His tag removed with thrombin; In the repair assay the protein was about 20% hyperoxidized; also called Prx3-S139E/A142E; Prx3-EE; source: E. coli BL21Gold (DE3), purified (HisPur Cobalt, Q-Sepharose, Superdex 200); not shown: His tag, N-terminal, cleaved
stoichiometry N [2]: 2

B3: human peroxiredoxin 3, wild type (enzyme, UniProt P30048 62-256, looked up)
chain: B2 chain with E78S, E81A
notes: peroxiredoxin 3 (Prx3), mitochondrial, human; In the repair assay the protein was hyperoxidized (CP-SO2H); also called Prx3; WT Prx3; copies: 12
stoichiometry N [2]: 12

B4: human peroxiredoxin 2, wild type (enzyme, UniProt P32119 1-198, looked up)
chain: MASGNARIGKPAPDFKATAVVDGAFKEVKLSDYKGKYVVLFFYPLDFTFVCPTEIIAFSNRAEDFRKLGCEVLGVSVDSQFTHLAWINTPRKEGGLGPLNIPLLADVTRRLSEDYGVLKTDEGIAYRGLFIIDGKGVLRQITVNDLPVGRSVDEALRLVQAFQYTDEHGEVCPAGWKPGSDTIKPNVDDSKEYFSKHN
notes: peroxiredoxin 2 (Prx2), human; Stored in the disulfide-bonded form; run on SEC-MALS reduced (10 mM DTT) or oxidized (1.2 equivalents of H2O2); In the repair assay the protein was hyperoxidized (CP-SO2H); also called Prx2; WT Prx2; copies: 10
stoichiometry N [2]: 10

B5: human peroxiredoxin 2 Thr82Glu, engineered dimer (enzyme, UniProt P32119 1-198, looked up)
chain: B4 chain with T82E
notes: peroxiredoxin 2 (Prx2), human; Vector pET19pp; His tag removed with HRV-3C protease; Section 2.6 prints the mutation as T83E; In the repair assay the protein was about 80% hyperoxidized; also called Prx2-T82E; Prx2-E; source: E. coli BL21Gold (DE3), purified (HisPur Cobalt, Q-Sepharose, Superdex 200); not shown: His tag, N-terminal, cleaved
stoichiometry N [2]: 2

Kd [3]: 12.5 ± 1.2 µM
B6: Oregon Green 514-labelled human sulfiredoxin Tyr128Ala (enzyme)
chain: not shown
modifications: Oregon Green 514 label (position not given)
notes: sulfiredoxin (Srx), human; The unlabelled variant was used in the HPLC activity assay; also called Srx Y128A; source: site-directed mutant (QuikChange), purified

Kd [3]: 7 ± 1.5 µM
B7: Oregon Green 514-labelled human sulfiredoxin (Srx), wild type (enzyme)
chain: not shown
modifications: Oregon Green 514 label (position not given)
notes: sulfiredoxin (Srx), human; also called WT Srx; Oregon Green labeled Srx
